This is an account of results in patent US20200308292A1 (ARMAGEN TECHNOLOGIES, published 2020).

Experiment [1] addresses T1, human insulin receptor extracellular domain (HIR ECD) (human, UniProt P06213 28-956, limits assumed).
T1 construct: extracellular domain
Put plainly: ELISA, HIR ECD plated, biotinylated anti-human IgG detection. As to the method: (§1) The affinity of the fusion protein for the HIR extracellular domain (ECD) was determined with an ELISA. CHO cells permanently transfected with the HIR ECD were grown in serum free media (SFM), and the HIR ECD was purified with a wheat germ agglutinin affinity column, as previously described in Coloma et al. (2000) Pharm Res, 17:266-274. The HIR ECD was plated on Nunc-Maxisorb 96 well dishes and the binding of the HIR Ab, or the HIR Ab-SGSH fusion protein, to the HIR ECD was detected with a biotinylated goat anti-human IgG (H+L) secondary antibody, followed by avidin and biotinylated peroxidase (Vector Labs, Burlingame, Calif.). […] The MW of the HIR Ab is 150 kDa, and the MW of the HIR Ab-SGSH fusion protein is 325 kDa.
A general note: In an ELISA, binding on a coated surface is turned into a signal by an enzyme label.

Experiment [2] deals with T1, human insulin receptor extracellular …. Description: ELISA, HIR ECD plated; after normalization for MW (150 kDa). Here is the method: as §1
Experiment [3] has the same target. Description: ELISA, HIR ECD plated; after normalization for MW (325 kDa). Here is the method: as §1

A word on the EC50: it is the midpoint of the concentration-response curve. Read a high EC50 as lower potency in that assay.

B1: chimeric HIRMAb (monoclonal antibody to the human insulin receptor) (antibody, human IgG1, kappa)
heavy: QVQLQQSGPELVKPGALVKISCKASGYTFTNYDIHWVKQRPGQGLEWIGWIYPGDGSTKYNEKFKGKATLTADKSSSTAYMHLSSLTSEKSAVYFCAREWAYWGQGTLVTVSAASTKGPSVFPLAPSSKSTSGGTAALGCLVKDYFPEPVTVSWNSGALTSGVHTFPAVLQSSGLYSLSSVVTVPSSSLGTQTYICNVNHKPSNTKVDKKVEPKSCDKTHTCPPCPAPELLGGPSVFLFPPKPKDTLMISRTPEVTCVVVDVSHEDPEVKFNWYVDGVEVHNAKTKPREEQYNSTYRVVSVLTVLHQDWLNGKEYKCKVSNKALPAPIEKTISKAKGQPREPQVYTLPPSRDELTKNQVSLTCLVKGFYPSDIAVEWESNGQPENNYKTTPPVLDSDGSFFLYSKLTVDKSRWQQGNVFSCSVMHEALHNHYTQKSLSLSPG
light: DIQMTQSPSSLSASLGERVSLTCRASQDIGGNLYWLQQGPDGTIKRLIYATSSLDSGVPKRFSGSRSGSDYSLTISSLESEDFVDYYCLQYSSSPWTFGGGTKMEIKRTVAAPSVFIFPPSDEQLKSGTASVVCLLNNFYPREAKVQWKVDNALQSGNSQESVTEQDSKDSTYSLSSTLTLSKADYEKHKVYACEVTHQGLSSPVTKSFNRGEC
notes: Its tie to the tested chimeric HIRMAb is indirect; MW 150 kDa; also called HIR Ab; chimeric HIR Ab
Turning to B1, the EC50 in experiment [1] was 0.029 µg/mL; in experiment [2] it was 0.19 nM.

B2: HIRMAb-SGSH fusion protein (antibody, human IgG1, kappa)
heavy: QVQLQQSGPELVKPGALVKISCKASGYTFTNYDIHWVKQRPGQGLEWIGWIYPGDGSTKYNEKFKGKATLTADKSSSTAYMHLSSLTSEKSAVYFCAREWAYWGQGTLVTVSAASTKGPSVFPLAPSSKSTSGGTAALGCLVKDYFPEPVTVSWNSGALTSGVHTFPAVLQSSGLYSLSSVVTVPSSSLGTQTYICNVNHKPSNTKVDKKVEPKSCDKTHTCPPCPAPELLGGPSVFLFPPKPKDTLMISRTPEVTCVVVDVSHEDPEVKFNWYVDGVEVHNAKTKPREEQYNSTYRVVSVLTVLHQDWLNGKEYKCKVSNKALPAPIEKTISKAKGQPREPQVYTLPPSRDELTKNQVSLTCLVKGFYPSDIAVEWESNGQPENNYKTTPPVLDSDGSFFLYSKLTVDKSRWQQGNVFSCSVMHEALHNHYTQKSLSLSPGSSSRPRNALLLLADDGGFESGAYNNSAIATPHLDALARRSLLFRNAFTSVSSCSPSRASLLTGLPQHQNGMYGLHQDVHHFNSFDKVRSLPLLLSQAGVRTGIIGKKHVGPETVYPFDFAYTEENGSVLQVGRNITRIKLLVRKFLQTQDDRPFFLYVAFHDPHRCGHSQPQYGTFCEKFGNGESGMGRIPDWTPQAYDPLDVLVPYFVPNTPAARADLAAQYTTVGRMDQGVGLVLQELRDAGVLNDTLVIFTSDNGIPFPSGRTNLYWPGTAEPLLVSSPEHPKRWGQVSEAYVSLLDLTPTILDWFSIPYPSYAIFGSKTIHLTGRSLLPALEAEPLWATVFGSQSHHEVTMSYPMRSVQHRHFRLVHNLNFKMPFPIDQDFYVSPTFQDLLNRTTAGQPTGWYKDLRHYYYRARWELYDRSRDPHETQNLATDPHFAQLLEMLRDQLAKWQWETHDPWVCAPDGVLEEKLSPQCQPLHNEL
light: DIQMTQSPSSLSASLGERVSLTCRASQDIGGNLYWLQQGPDGTIKRLIYATSSLDSGVPKRFSGSRSGSDYSLTISSLESEDFVDYYCLQYSSSPWTFGGGTKMEIKRTVAAPSVFIFPPSDEQLKSGTASVVCLLNNFYPREAKVQWKVDNALQSGNSQESVTEQDSKDSTYSLSSTLTLSKADYEKHKVYACEVTHQGLSSPVTKSFNRGEC
modifications: Cys-514 of SEQ ID NO 10 undergoes post-translational conversion to formylglycine (inferred by the filing from retained enzyme activity)
notes: IgG-enzyme fusion, hetero-tetramer, CHO-derived, estimated MW 325 kDa; also called HIR Ab-SGSH fusion protein; HIR Ab-SGSH fusion antibody
As for B2, the EC50 in experiment [1] was determined as 0.107 µg/mL; in experiment [3], 0.33 nM.
